In patent publication US20230391859A1 one finds Kd and EC50 (read off the curve) data, which are given here for one substance.

The target in assay [1] is cardiac amyloid deposits (ATTR amyloid) (UniProt P02766). Nature of the assay: ex vivo binding curve on cardiac tissue sections with amyloid (FIG. 5G).
Assay [2] has the same target. Kind of assay: ex vivo binding to cardiac amyloid in tissue sections, quantified as % of maximum.
For assay [3] the target is unchanged. Nature of the assay: ex vivo binding curve on cardiac tissue sections with amyloid (FIG. 5G); same value in mass units.

As to “murine precursor of PRX004 (mPRX004) (antibody)”, the Kd is 1.75 nM in assay [1] and 0.26 µg/mL in assay [3]. In assay [2], this substance had an EC50 (read off the curve) of 0.3 µg/mL.

What is called Kd is a measure of binding affinity in units of concentration. Low readings indicate higher affinity, high ones lower affinity. In general, EC50 (read off the curve) refers to the concentration at which the effect is half-maximal. Read a high EC50 (read off the curve) as a less potent agent.
